Drawing on PMC3633458, this text covers stoichiometry N for 1 substance.

Test [1] deals with Escherichia coli-expressed Plasmodium falciparum merozoite surface protein 3 (EcMSP3) (Plasmodium falciparum (FVO strain)). Description: AUC.
For test [2] the target is unchanged. Description: SEC-MALS.

Take “Escherichia coli-expressed Plasmodium falciparum merozoite surface protein 3 (EcMSP3) (domain or fragment)”: the stoichiometry N in test [1] and in test [2] was 2 throughout.
